B1: r16_88_TrROS_Hall (parent)
chain: EVIELKIKFKTPEQREKLKEIAKKLNAEVVEEKDGEVIIRFKTPEQAERALKEAEKLGAEVEL

The variants in this data set derive from B1. Description: folding stability dG (cDNA display proteolysis); higher = more stable. The conditions noted are these: PBS, room temperature.
On to EVIELKIKFKTPEQREKLKEIAKKLNAEVVEEKDGEVIIRFKTPEQAERALKEAEKLGALVEL [E60L], for which the “folding stability dG” value worked out at 4.21 kcal/mol.
In the case of EVIELKIKFKTPEQREKLKEIAKKLNAEVVEEKDGEVIIRFKTPEQAERALKEAEKLGATVEL [E60T], the “folding stability dG” value was found to be 4.4 kcal/mol.
For EVIELKIKFKTPEQREKLKEIAKKLNAEVVEEKDGEVIIRFKTPEQAERALKEAEKLGAGVEL [E60G] the value was 3.81 kcal/mol; for EVIELKIKFKTPEQREKLKEIAKKLNAEVVEEKDGEVIIRFKTPEQAERALKEAEKLGAPVEL [E60P], 3.44 kcal/mol; for EVIELKIKFKTPEQREKLKEIAKKLNAEVVEEKDGEVIIRFKTPEQAERALKEAEKLGAHVEL [E60H], 4.19 kcal/mol.
With EVIELKIKFKTPEQREKLKEIAKKLNAEVVEEKDGEVIIRFKTPEQAERALKEAEKLGAQVEL [E60Q], the “folding stability dG” value amounted to 4.2 kcal/mol.
On to EVIELKIKFKTPEQREKLKEIAKKLNAEVVEEKDGEVIIRFKTPEQAERALKEAEKLGAWVEL [E60W], for which the “folding stability dG” value worked out at 4.01 kcal/mol.
For EVIELKIKFKTPEQREKLKEIAKKLNAEVVEEKDGEVIIRFKTPEQAERALKEAEKLGAYVEL [E60Y] the value was 4.21 kcal/mol; for EVIELKIKFKTPEQREKLKEIAKKLNAEVVEEKDGEVIIRFKTPEQAERALKEAEKLGAVVEL [E60V], 4.54 kcal/mol.
As for EVIELKIKFKTPEQREKLKEIAKKLNAEVVEEKDGEVIIRFKTPEQAERALKEAEKLGADVEL [E60D], the “folding stability dG” value was 4.24 kcal/mol.
With EVIELKIKFKTPEQREKLKEIAKKLNAEVVEEKDGEVIIRFKTPEQAERALKEAEKLGACVEL [E60C] the figure was 4.27 kcal/mol; with EVIELKIKFKTPEQREKLKEIAKKLNAEVVEEKDGEVIIRFKTPEQAERALKEAEKLGAKVEL [E60K], 4.38 kcal/mol; with EVIELKIKFKTPEQREKLKEIAKKLNAEVVEEKDGEVIIRFKTPEQAERALKEAEKLGARVEL [E60R], 4.15 kcal/mol.
With EVIELKIKFKTPEQREKLKEIAKKLNAEVVEEKDGEVIIRFKTPEQAERALKEAEKLGAIVEL [E60I] the figure was 4.12 kcal/mol; with EVIELKIKFKTPEQREKLKEIAKKLNAEVVEEKDGEVIIRFKTPEQAERALKEAEKLGANVEL [E60N], 4.29 kcal/mol.
For EVIELKIKFKTPEQREKLKEIAKKLNAEVVEEKDGEVIIRFKTPEQAERALKEAEKLGAMVEL [E60M] the value was 4.11 kcal/mol; for EVIELKIKFKTPEQREKLKEIAKKLNAEVVEEKDGEVIIRFKTPEQAERALKEAEKLGAAVEL [E60A], 4.12 kcal/mol.
For EVIELKIKFKTPEQREKLKEIAKKLNAEVVEEKDGEVIIRFKTPEQAERALKEAEKLGAFVEL [E60F], the “folding stability dG” value was determined as 4.07 kcal/mol.
For EVIELKIKFKTPEQREKLKEIAKKLNAEVVEEKDGEVIIRFKTPEQAERALKEAEKLGASVEL [E60S] the value was 4.28 kcal/mol; for EVIELKIKFKTPEQREKLKEIAKKLNAEVVEEKDGEVIIRFKTPEQAERALKEAEKLGAEDEL [V61D], 4.72 kcal/mol; for EVIELKIKFKTPEQREKLKEIAKKLNAEVVEEKDGEVIIRFKTPEQAERALKEAEKLGAEEEL [V61E], 4.3 kcal/mol.
For EVIELKIKFKTPEQREKLKEIAKKLNAEVVEEKDGEVIIRFKTPEQAERALKEAEKLGAEAEL [V61A] the value was 4.51 kcal/mol.
With EVIELKIKFKTPEQREKLKEIAKKLNAEVVEEKDGEVIIRFKTPEQAERALKEAEKLGAEGEL [V61G] the figure was 4.4 kcal/mol.
In the case of EVIELKIKFKTPEQREKLKEIAKKLNAEVVEEKDGEVIIRFKTPEQAERALKEAEKLGAECEL [V61C], the “folding stability dG” value worked out at 4.16 kcal/mol.
For EVIELKIKFKTPEQREKLKEIAKKLNAEVVEEKDGEVIIRFKTPEQAERALKEAEKLGAEFEL [V61F] the value was 4.05 kcal/mol; for EVIELKIKFKTPEQREKLKEIAKKLNAEVVEEKDGEVIIRFKTPEQAERALKEAEKLGDEVEL [A59D], 4.28 kcal/mol; for EVIELKIKFKTPEQREKLKEIAKKLNAEVVEEKDGEVIIRFKTPEQAERALKEAEKLGGEVEL [A59G], 4.18 kcal/mol.
For EVIELKIKFKTPEQREKLKEIAKKLNAEVVEEKDGEVIIRFKTPEQAERALKEAEKLGKEVEL [A59K] the value was 4.31 kcal/mol; for EVIELKIKFKTPEQREKLKEIAKKLNAEVVEEKDGEVIIRFKTPEQAERALKEAEKLGYEVEL [A59Y], 4.5 kcal/mol; for EVIELKIKFKTPEQREKLKEIAKKLNAEVVEEKDGEVIIRFKTPEQAERALKEAEKLGTEVEL [A59T], 4.27 kcal/mol.
For EVIELKIKFKTPEQREKLKEIAKKLNAEVVEEKDGEVIIRFKTPEQAERALKEAEKLGEEVEL [A59E] the value was 4.23 kcal/mol; for EVIELKIKFKTPEQREKLKEIAKKLNAEVVEEKDGEVIIRFKTPEQAERALKEAEKLGVEVEL [A59V], 4.65 kcal/mol; for EVIELKIKFKTPEQREKLKEIAKKLNAEVVEEKDGEVIIRFKTPEQAERALKEAEKLGWEVEL [A59W], 4.21 kcal/mol.
With EVIELKIKFKTPEQREKLKEIAKKLNAEVVEEKDGEVIIRFKTPEQAERALKEAEKLGHEVEL [A59H], the “folding stability dG” value was 4.43 kcal/mol.
With EVIELKIKFKTPEQREKLKEIAKKLNAEVVEEKDGEVIIRFKTPEQAERALKEAEKLGSEVEL [A59S] the figure was 4.26 kcal/mol; with EVIELKIKFKTPEQREKLKEIAKKLNAEVVEEKDGEVIIRFKTPEQAERALKEAEKLGMEVEL [A59M], 4.39 kcal/mol.
With EVIELKIKFKTPEQREKLKEIAKKLNAEVVEEKDGEVIIRFKTPEQAERALKEAEKLGPEVEL [A59P] the figure was 4.55 kcal/mol; with EVIELKIKFKTPEQREKLKEIAKKLNAEVVEEKDGEVIIRFKTPEQAERALKEAEKLGIEVEL [A59I], 4.01 kcal/mol.
For EVIELKIKFKTPEQREKLKEIAKKLNAEVVEEKDGEVIIRFKTPEQAERALKEAEKLGNEVEL [A59N] the value was 4.3 kcal/mol.
As to EVIELKIKFKTPEQREKLKEIAKKLNAEVVEEKDGEVIIRFKTPEQAERALKEAEKLGREVEL [A59R], the “folding stability dG” value came out at 3.99 kcal/mol.
For EVIELKIKFKTPEQREKLKEIAKKLNAEVVEEKDGEVIIRFKTPEQAERALKEAEKLGFEVEL [A59F] the value was 4.59 kcal/mol; for EVIELKIKFKTPEQREKLKEIAKKLNAEVVEEKDGEVIIRFKTPEQAERALKEAEKLGLEVEL [A59L], 4.62 kcal/mol.
For EVIELKIKFKTPEQREKLKEIAKKLNAEVVEEKDGEVIIRFKTPEQAERALKEAEKLGQEVEL [A59Q] the value was 4.05 kcal/mol.

The record behind these values is the MegaScale stability set (Tsuboyama et al. 2023).
